Measurements: patent US20240025993A1 (Novartis, published 2024)

T1: human CD19 (human, UniProt P15391 20-556)
T1 construct: whole, on cells; also called huCD19; hCD19
T1 sequence (looked up): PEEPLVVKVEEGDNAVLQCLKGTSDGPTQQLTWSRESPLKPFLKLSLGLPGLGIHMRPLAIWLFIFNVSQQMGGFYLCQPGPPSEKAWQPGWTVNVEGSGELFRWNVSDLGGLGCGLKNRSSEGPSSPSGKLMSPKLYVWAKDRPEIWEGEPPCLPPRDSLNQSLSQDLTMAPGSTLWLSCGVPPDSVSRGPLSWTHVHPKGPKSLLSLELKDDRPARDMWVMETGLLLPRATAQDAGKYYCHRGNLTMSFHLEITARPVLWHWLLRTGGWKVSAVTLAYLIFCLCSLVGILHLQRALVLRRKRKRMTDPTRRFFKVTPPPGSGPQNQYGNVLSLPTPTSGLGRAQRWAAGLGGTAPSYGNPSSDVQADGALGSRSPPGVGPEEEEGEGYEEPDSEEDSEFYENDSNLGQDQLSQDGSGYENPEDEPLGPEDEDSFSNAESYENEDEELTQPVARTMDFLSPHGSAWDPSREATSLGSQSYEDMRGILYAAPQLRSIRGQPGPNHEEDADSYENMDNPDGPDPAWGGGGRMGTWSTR


Assays:
[1] = biological target: T1, human CD19; experiment: summary sentence of the examples; no method at this place
[2] = biological target: T2, human Fc gamma receptor 1A (human, UniProt P12314 16-288, limits assumed); experiment: SPR (Biacore T200), antibody amine-coupled on CM5 chip, human FcγRIA as analyte; maximum response (RU)
T2 construct: also called hFcgammaRIA; hFcγRIA
Description: Surface plasmon resonance was conducted using a Biacore T200 to assess binding affinity of antibody WT and variants to human FcγR1A.
The antibodies were covalently immobilized on a CM5 sensor chip whereas Fc gamma receptor 1A served as analyte in solution (FIG. 38). Antibodies were diluted in 10 mM sodium acetate pH 4 and immobilized at a density of approximately 950 resonance units (RU) on the CM5 sensor chip applying a standard amine coupling procedure. Flow cell 1 was blank immobilized to serve as a reference. The kinetic binding data were collected by subsequent injections of 1:2 dilution series of the human Fc gamma receptor 1A on all flow cells at a flow rate of 30 μl/min and at a temperature of 25° C. […] The chip surface was regenerated using 20 mM glycine pH 2.0 solution after each measuring cycle. Zero concentration samples (blank runs) were measured to allow double-referencing during data evaluation.
Data were evaluated using the Biacore T200 evaluation software. The raw data were double referenced, i.e. the response of the measuring flow cell was corrected for the response of the reference flow cell, and in a second step the response of a blank injection was subtracted. Then the sensorgrams were fitted by applying a 1:1 kinetic binding model to calculate dissociation equilibrium constants. In addition, the maximum response reached during the experiment was monitored. Maximum response describes the binding capacity of the surface in terms of the response at saturation.

T2 sequence (P12314 16-288 limits assumed): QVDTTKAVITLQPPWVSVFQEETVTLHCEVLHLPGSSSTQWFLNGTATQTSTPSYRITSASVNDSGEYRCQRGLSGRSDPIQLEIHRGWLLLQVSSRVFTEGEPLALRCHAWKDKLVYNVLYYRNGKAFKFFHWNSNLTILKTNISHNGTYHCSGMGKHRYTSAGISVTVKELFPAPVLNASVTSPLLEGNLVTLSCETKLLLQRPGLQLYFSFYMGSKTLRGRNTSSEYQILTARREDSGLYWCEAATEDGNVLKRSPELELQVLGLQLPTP

| Binder | binding result [1] | binding result [2] |
| --- | --- | --- |
| NEG258 (antibody, V domains shown, also called CD19 antibody NEG258; anti-CD19 antibody NEG258) VH: QVQLVQSGAEVKKPGASVKVSCKASGYTFTTYWIQWVRQAPGQRLEWMGAVYPGDADTRYTQKFQGRVTLTADRSASTAYMELSSLRSEDTAVYYCGRDAGLEYYALDYWGQGTLVTVSS VL: EIVMTQSPATLSVSPGERATLSCRASQDVGTAVAWYQQKPGQAPRLLIYWASTRHTGIPARFSGSGSGTEFTLTISSLQSEDFAVYFCQQYANFPLYTFGQGTKLEIK | binds |  |
| NEG218 (antibody, V domains shown, also called CD19 antibody NEG218; anti-CD19 antibody NEG218) VH: EVQLVQSGAEVKKPGESLKISCKASGYSFTNYWMNWVRQMPGKGLEWMGMIHPSDSEIRLNQKFQGQVTLSVDKSIGTAYMQWSSLKASDTAMYYCSRWYYLSSPMDYWGQGTTVTVSS VL: EIVMTQSPATLSVSPGERATLSCRASQDVGTAVAWYQQKPGQAPRLLIYWASTRHTGIPARFSGSGSGTEFTLTISSLQSEDFAVYFCQQYSSYPYTFGQGTKLEIK | binds |  |
| Anti-CD19-CD3 / CD58 trispecific antibody, DANAPA IgG1 Fc (Table 33) (other) heavy: QVQLVQSGAEVKKPGASVKVSCKASGYTFTTYWIQWVRQAPGQRLEWMGAVYPGDADTRYTQKFQGRVTLTADRSASTAYMELSSLRSEDTAVYYCGRDAGLEYYALDYWGQGTLVTVSSASTKGPSVFPLAPSSKSTSGGTAALGCLVKDYFPEPVTVSWNSGALTSGVHTFPAVLQSSGLYSLSSVVTVPSSSLGTQTYICNVNHKPSNTKVDKRVEPKSCGGGGSGGGGSEVQLVESGGGLVQPGGSLKLSCAASGFTFNTYAMNWVRQASGKGLEWVGRIRSKYNNYATYYADSVKDRFTISRDDSKSTLYLQMNSLKTEDTAVYYCVRHGNFGNSYVSWFAYWGQGTLVTVSSGGGGSGGGGSGGGGSGGGGSQAVVTQEPSLTVSPGGTVTLTCRSSTGAVTTSNYANWVQQKPGQAPRGLIGGTNKRAPWTPARFSGSLLGDKAALTLSGAQPEDEAEYFCALWYSNLWVFGGGTKLTVLGGGGSDKTHTCPPCPAPELLGGPSVFLFPPKPKDTLMISRTPEVTCVVVAVSHEDPEVKFNWYVDGVEVHNAKTKPREEQYASTYRVVSVLTVLHQDWLNGKEYKCKVSNKALAAPIEKTISKAKGQPREPQVCTLPPSREEMTKNQVSLSCAVKGFYPSDIAVEWESNGQPENNYKTTPPVLDSDGSFFLVSKLTVDKSRWQQGNVFSCSVMHEALHNHYTQKSLSLSPGK SQQIYGVVYGNVTFHVPSNVPLKEVLWKKQKDKVAELENSEFRAFSSFKNRVYLDTVSGSLTIYNLTSSDEDEYEMESPNITDTMKFFLYVLESGGGGSDKTHTCPPCPAPELLGGPSVFLFPPKPKDTLMISRTPEVTCVVVAVSHEDPEVKFNWYVDGVEVHNAKTKPREEQYASTYRVVSVLTVLHQDWLNGKEYKCKVSNKALAAPIEKTISKAKGQPREPQVYTLPPCREEMTKNQVSLWCLVKGFYPSDIAVEWESNGQPENNYKTTPPVLDSDGSFFLYSKLTVDKSRWQQGNVFSCSVMHEALHNHYTQKSLSLSPGK light: not shown |  | no binding (tested: 25 nM) |
| Anti-CD19-CD3 / CD58 trispecific antibody, GADAPASK IgG1 Fc (Table 33) (other) heavy: QVQLVQSGAEVKKPGASVKVSCKASGYTFTTYWIQWVRQAPGQRLEWMGAVYPGDADTRYTQKFQGRVTLTADRSASTAYMELSSLRSEDTAVYYCGRDAGLEYYALDYWGQGTLVTVSSASTKGPSVFPLAPSSKSTSGGTAALGCLVKDYFPEPVTVSWNSGALTSGVHTFPAVLQSSGLYSLSSVVTVPSSSLGTQTYICNVNHKPSNTKVDKRVEPKSCGGGGSGGGGSEVQLVESGGGLVQPGGSLKLSCAASGFTFNTYAMNWVRQASGKGLEWVGRIRSKYNNYATYYADSVKDRFTISRDDSKSTLYLQMNSLKTEDTAVYYCVRHGNFGNSYVSWFAYWGQGTLVTVSSGGGGSGGGGSGGGGSGGGGSQAVVTQEPSLTVSPGGTVTLTCRSSTGAVTTSNYANWVQQKPGQAPRGLIGGTNKRAPWTPARFSGSLLGDKAALTLSGAQPEDEAEYFCALWYSNLWVFGGGTKLTVLGGGGSDKTHTCPPCPAPELLGAPSVFLFPPKPKDTLMISRTPEVTCVVVAVKHEDPEVKFNWYVDGVEVHNAKTKPREEQYNSTYRVVSVLTVLHQDWLNGKEYKCKVSNKALAAPIEKTISKAKGQPREPQVCTLPPSREEMTKNQVSLSCAVKGFYPSDIAVEWESNGQPENNYKTTPPVLDSDGSFFLVSKLTVDKSRWQQGNVFSCSVMHEALHNHYTQKSLSLSPGK SQQIYGVVYGNVTFHVPSNVPLKEVLWKKQKDKVAELENSEFRAFSSFKNRVYLDTVSGSLTIYNLTSSDEDEYEMESPNITDTMKFFLYVLESGGGGSDKTHTCPPCPAPELLGAPSVFLFPPKPKDTLMISRTPEVTCVVVAVKHEDPEVKFNWYVDGVEVHNAKTKPREEQYNSTYRVVSVLTVLHQDWLNGKEYKCKVSNKALAAPIEKTISKAKGQPREPQVYTLPPCREEMTKNQVSLWCLVKGFYPSDIAVEWESNGQPENNYKTTPPVLDSDGSFFLYSKLTVDKSRWQQGNVFSCSVMHEALHNHYTQKSLSLSPGK light: not shown |  | no binding (tested: 25 nM) |
| Anti-CD19-CD3 / CD58 trispecific antibody, LALASKPA IgG1 Fc (Table 33) (other) heavy: QVQLVQSGAEVKKPGASVKVSCKASGYTFTTYWIQWVRQAPGQRLEWMGAVYPGDADTRYTQKFQGRVTLTADRSASTAYMELSSLRSEDTAVYYCGRDAGLEYYALDYWGQGTLVTVSSASTKGPSVFPLAPSSKSTSGGTAALGCLVKDYFPEPVTVSWNSGALTSGVHTFPAVLQSSGLYSLSSVVTVPSSSLGTQTYICNVNHKPSNTKVDKRVEPKSCGGGGSGGGGSEVQLVESGGGLVQPGGSLKLSCAASGFTFNTYAMNWVRQASGKGLEWVGRIRSKYNNYATYYADSVKDRFTISRDDSKSTLYLQMNSLKTEDTAVYYCVRHGNFGNSYVSWFAYWGQGTLVTVSSGGGGSGGGGSGGGGSGGGGSQAVVTQEPSLTVSPGGTVTLTCRSSTGAVTTSNYANWVQQKPGQAPRGLIGGTNKRAPWTPARFSGSLLGDKAALTLSGAQPEDEAEYFCALWYSNLWVFGGGTKLTVLGGGGSDKTHTCPPCPAPEAAGGPSVFLFPPKPKDTLMISRTPEVTCVVVDVKHEDPEVKFNWYVDGVEVHNAKTKPREEQYNSTYRVVSVLTVLHQDWLNGKEYKCKVSNKALAAPIEKTISKAKGQPREPQVCTLPPSREEMTKNQVSLSCAVKGFYPSDIAVEWESNGQPENNYKTTPPVLDSDGSFFLVSKLTVDKSRWQQGNVFSCSVMHEALHNHYTQKSLSLSPGK SQQIYGVVYGNVTFHVPSNVPLKEVLWKKQKDKVAELENSEFRAFSSFKNRVYLDTVSGSLTIYNLTSSDEDEYEMESPNITDTMKFFLYVLESGGGGSDKTHTCPPCPAPEAAGGPSVFLFPPKPKDTLMISRTPEVTCVVVDVKHEDPEVKFNWYVDGVEVHNAKTKPREEQYNSTYRVVSVLTVLHQDWLNGKEYKCKVSNKALAAPIEKTISKAKGQPREPQVYTLPPCREEMTKNQVSLWCLVKGFYPSDIAVEWESNGQPENNYKTTPPVLDSDGSFFLYSKLTVDKSRWQQGNVFSCSVMHEALHNHYTQKSLSLSPGK light: not shown |  | no binding (tested: 25 nM) |
